Results reported in US6451992.

System: thrombostasin (thrombin inhibitor of Haematobia irritans saliva; tested as whole serotonin-induced saliva)

Question: bovine thrombin was tested. Which “rates of hydrolysis of chromogenic substrate S238 (2.5-100 µM) by bovine thrombin (250 pM) alone and in the presence of horn fly saliva (equivalent to 2 flies)” value did it give?
Answer: Its value is “it may be a competitive inhibitor, as its effect is diminished when substrate is unlimited (100 µM)”.
